Data taken from patent US20200199244A1 (published 2020).
Numbering of substitutions follows the chain as printed. Where “and” joins values, the source holds several entries; their conditions need not be identical. Equal entries are not always repeated.

B1: BMS3h-193-2506 (other)
VL: DIQMTQSPSSLSASVGDRVTITCRASQQIGRRLNWYQQKPGKAPRLLIYLATRLQSGVPSRFSGSGSGTDFTLTISSLQPEDFATYYCHQYESPPLTFGQGTKVEIKR
notes: domain antibody (dAb): single human V kappa domain
B2: BMS3h-193-2512 (other)
VL: B1 VL with Q27E, Q28V
notes: as for B1
B3: BMS3h-193-2507 (other)
VL: B1 VL with Q28P, G30A
notes: as for B1
B4: BMS3h-193-2510 (other)
VL: B1 VL with Q28S
notes: as for B1
B5: BMS3h-193-2502 (other)
VL: B1 VL with Q27F, Q28P, G30D
notes: as for B1
B6: BMS3h-193-2505 (other)
VL: B1 VL with Q27E, Q28R
notes: as for B1
B7: BMS3h-193-2503 (other)
VL: B1 VL with Q27S, Q28T
notes: as for B1
B8: BMS3h-193-2501 (other)
VL: B1 VL with Q28T, G30E, Y91F, S93H
notes: as for B1
B9: BMS3h-193-2504 (other)
VL: B1 VL with Q27S
notes: as for B1
B10: BMS3h-193-2511 (other)
VL: B1 VL with Q28N, R31T
notes: as for B1
B11: BMS3h-38-204 (other)
VH: EVQLLASGGGLVQPGGSLRLSCAASGFTFPQEEMIWVRQAPGKGLEWVSAISGSGGSTYYADSVKGRFTISRDNSKNTLYLQMNSLRAEDTAVYYCGKEPFRYDYWGQGTLVTVSS
notes: domain antibody (dAb): single human VH domain
B12: BMS3h-38-226 (other)
VH: B11 VH with P30E, Q31E, F101L, R102Y
notes: as for B11
B13: BMS3h-38-225 (other)
VH: B11 VH with P30E, Q31E, S57G
notes: as for B11
B14: BMS3h-38-215 (other)
VH: B11 VH with P30E, Q31E, S54L, G56W
notes: as for B11
B15: BMS3h-38-228 (other)
VH: B11 VH with P30E, Q31E, G53R, S54N, G56F
notes: as for B11
B16: BMS3h-38-231 (other)
VH: B11 VH with T28P, P30E, Q31E, G53R, S54Q, G56W
notes: as for B11
B17: BMS3h-38-224 (other)
VH: B11 VH with P30E, Q31E, R102P
notes: as for B11
B18: BMS3h-38-237 (other)
VH: B11 VH with P30E, Q31E, G53R, S54G, G56W
notes: as for B11
B19: BMS3h-38-217 (other)
VH: B11 VH with P30E, Q31E, G53R, S54R, G56Y
notes: as for B11
B20: BMS3h-38-205 (other)
VH: B11 VH with P30F, Q31A, E32A
notes: as for B11
B21: BMS3h-38-209 (other)
VH: B11 VH with P30E, Q31E, G53R, S54L, G56W
notes: as for B11
B22: BMS3h-38-235 (other)
VH: B11 VH with P30E, Q31E, G53R, S54N, G56Y
notes: as for B11
B23: BMS3h-38-218 (other)
VH: B11 VH with P30E, Q31E, G53R, S54H, G56W
notes: as for B11
B24: BMS3h-38-223 (other)
VH: B11 VH with P30E, Q31E, R102M
notes: as for B11

Target: T1, human CD40 (BMS, CY24FEB06-01) (human, UniProt P25942 21-193)
T1 construct: Soluble human CD40 reagent of the ELISA RBA
T1 sequence (P25942 21-193 limits assumed): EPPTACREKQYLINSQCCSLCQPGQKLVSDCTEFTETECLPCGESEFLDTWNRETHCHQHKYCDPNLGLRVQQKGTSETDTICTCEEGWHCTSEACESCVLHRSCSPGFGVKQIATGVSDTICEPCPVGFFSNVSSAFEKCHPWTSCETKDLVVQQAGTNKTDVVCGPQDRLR
Assay: ELISA RBA, competition with IZ-CD40L for soluble human CD40;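 also: Neutravidin-coated 384-well plates, dAb–human CD40 complex incubated 2 h at room temperature, read-out as absorbance at 450 nm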
Method: Clear walled High Bind, 384-well plates (Corning, UK) were coated with 25 μl of 1 μg/ml Neutravidin in 0.2 M carbonate-bicarbonate buffer, pH 9.4 overnight at 4° C. The following day, assay plates were washed with 0.1% (v/v) Tween PBS buffer, blocked with 1% (w/v) BSA in PBS for 1 hour at room temperature and washed again. […] Following washing of the assay plate, the dAb:human CD40 complex was incubated in the assay plate at room temperature for 2 hours with gentle agitation. […] Absorbance signal was measured using a SpectraMax® M5e plate reader (Molecular Devices) at 450 nm following neutralization with 1M HCl solution.

Row | Binder | EC50
1 | B1 | 180 nM
2 | B2 | 600 nM
3 | B3 | 160 nM
4 | B4 | 170 nM
5 | B5 | 170 nM
6 | B6 | 500 nM
7 | B7 | 3000 nM
8 | B8 | 114 nM
9 | B9 | 140 nM
10 | B10 | 270 nM
11 | B11 | 4.8 nM
12 | B12 | 18.1 nM
13 | B13 | 8.8 nM
14 | B14 | 2.3 nM and 3.6 nM
15 | B15 | 4 nM
16 | B16 | 4.4 nM
17 | B17 | 6.3 nM
18 | B18 | 2 nM
19 | B19 | 1.8 nM and 2.2 nM
20 | B20 | 4.5 nM and 11.1 nM
21 | B21 | 10.2 nM
22 | B22 | 1.5 nM
23 | B23 | 3 nM
24 | B24 | 5.7 nM
